From the DeepSol protein solubility set

test: soluble on expression in E. coli; label from the status in PepcDB or PDB records

Sequence | soluble on expression in E. coli
MAKQIKGIAASDGVAIAKAYLLVEPDLSFDNESVTDTDAEVAKFNGALNKSKVELTKIRNNAEKQLGADKAAIFDAHLLVLEDPELIQPIEDKIKNESVNAAQALTDVSNQFITIFESMDNEYMAERAADIRDVSKRVLAHILGVELPNPSIVDESVVIIGNDLTPSDTAQLNKEYVQGFVTNIGGRTSHSAIMSRSLEIPAVVGTKSITEEVEAGDTIVVDGMTGDVLINPSDEVIAEYQEKRENFFKDKQELQKLRDAESVTADGHHVELAANIGTPNDLPGVIENGAEGIGLYRTEFLYMGRDQMPTEEEQFEAYKAVLEAMKGKRVVVRTLDIGGDKELPYLDLPEEMNPFLGYRAIRLCLDQPEIFRPQLRALLRASVFGKLNIMFPMVATIQEFRDAKALLEEERANLKNEGYEVADDIELGIMVEIPSTAALADIFAKEVDFFSIGTNDLIQYTMAADRMSERVSYLYQPYNPAILRLVKQVIEASHAEGKWTGMCGEMAGDQTAIPLLLGLGLDEFSMSATSILKARRLIRSLNESEMKELSERAVQCATSEEVVDLVEEYTKNA | soluble
MAKRPTETERCIESLIAIFQKHAGRDGNNTKISKTEFLIFMNTELAAFTQNQKDPGVLDRMMKKLDLDSDGQLDFQEFLNLIGGLAIACHDSFIKSTQK | soluble
MAKTIRDESTASAYWAAVNTFCALKDVHVIADAPVGCYNLAGVAVMDYTDAIPYLENLTPTSLTEREISSSGSSQIVQETIEKLMGSGKQLILVSSAESEMIGSDHQHMLAMKYPSVRFFASDSLGENEWQGRDRALAWLFDQFDDGQPSQIEPGTVSIIGPTYGCFNSPADLAEVKRLVTGAGGRVAHVYPFESKAAEITKLKNSAAIVVMYREFGAALAEKLGRPVLYAPFGIEETDRFIGKIGRLCGTPEQATRFIAEEKRTTLSPVWDLWRGPQSEWFPTIRFGVVASKSYADGIKHVLGDELGMQCLFSLDSAEVDNNAVRKEIVQKQPQFLYGRMPDKIYLAEADAKSRFIPAGFPGPIVRRALGTPFMGHSGVVWLVQEIVNALYDTLFNFLPITRRQQAAAPTKPLKWTPEANAILDGIVRKAPFISQISFGRELKRKAENLAASRGADTVTPDILQQLG | soluble
MAKTLGLHILADLYGVDADKIDRVEDIRELLEGAVKYANLTKISSHYYQFQPHGATGVVLLAESHISIHTWPEHGLATVDVYTCGDPSKAYRAMDYIITQLNPKRIDKQVHERGIVEEESNQSEAEKLRSILLQV | soluble
MAKYTEWLTEEGLIKIEGWARDGLIDKQIAQNIGVAYSTFREWVKKFPALSASLKKGKEVVDRQVENALFKSATGYEYTEVTEELTENGMEITKKVKKQVAPNPTAAIFWLKNRKPDEWRDRKETEVSGVLNISDAAVEIEQFFEDDST | not soluble
MALAHVSRRVISNQIRCFAAANQETSLVHVEKQFEAIEPEKRDKDAFMAAIATFKEKRGRTHVEFINTALKYVKEYGVHKDIDTYKGLLEVFPKGKMIPQTVFQKVFLHYPQQQNCAVKVLDEMEWHGVQPDKEIHDIVVNAFGEWNFATKKVKRMLYWMPKLKHSNKYLDRRHVEGKSLSPSELAGIALKMMSRDAASSISLLKLSDSSDPQQKWLATSQSPMQQILISELRKGDEVFVDAAKVYLQDRVIPFITLTGNTKLEPLNEFKNEDMDEDYTNWYADWQKQRGEAKRSIHEQDHETIFAMGAMYKDDNATAIRWIDNLQKTNPNMENLRFRVRLEGNPIISRK | not soluble
MALHLHRAERTDLLADGLGALLADPQPDPFAQELVLVAARGVERWLSQRLSLVLGCGPGRADGVCAGIAFRNPQSLIAEITGTLDDDPWSPEALAWPLLAVIDASLDEPWCRTLASHLGHFATTDAEAELRRGRRYSVARRLAGLFASYARQRPGLLAAWLDGDLGELPGDLAWQPPLWRALVTTVGADPPHVRHDKTIARLRDGPADLPARLSLFGHTRLACTDVQLLDALAVHHDLHLWLPHPSDELWRALAGFQGADGLLPRRQDTSRRAAQHPLLETLGRDVRELQRALPAARATDEFLGATTKPDTLLGWLQADIAGNAPRPAGRSLSDADRSVQVHACHGPARQIDVLREVLLGLLEDDPTLQPRDIVVMCPDIDTYAPLIVAGFGLGEVAGDCHPAHRLRVRLADRALTQTNPLLSVAAELLTIAETRATASQLLNLAQAAPVRAKFGFADDDLDTITTWVRESNIRWGFDPTHRRRYGLDTVVHNTWRFGLDRILTGVAMSEDSQAWLDTALPLDDVGSNRVELAGRLAEFVERLHHVVGGLSGARPLVAWLDALATGIDLLTACNDGWQRAQVQREFADVLARAGSRAAPLLRLPDVRALLDAQLAGRPTRANFRTGTLTVCTMVPMRSVPHRVVCLVGLDDGVFPRLSHPDGDDVLAREPMTGERDIRSEDRQLLLDAIGAATQTLVITYTGADERTGQPRPPAVPLAELLDALDQTTSAPVRERILVTHPLQPFDRKNVTPGALLGAKPFTFDPAALAAAQAAAGKRCPPTAFISGRLPAPPAADVTLADLLDFFKDPVKGFFRALDYTLPWDVDTVEDSIPVQVDALAEWTVGERMLRDMLRGLHPDDAAHSEWRRGTLPPGRLGVRRAKEIRNRARDLAAAALAHRDGHGQAHDVDVDLGDGRRLSGTVTPVFGGRTVSVTYSKLAPKHVLPAWIGLVTLAAQEPGREWSALCIGRSKTRNHIARRLFVPPPDPVAVLRELVLLYDAGRREPLPLPLKTSCAWAQARRDGQDPYPPARECWQTNRFRPGDDDAPAHVRAWGPRAPFEVLLGKPRAGEEVAGEETRLGALAARLWLPLLAAEGSV | soluble
MALMSDKFLSIVIPAYNSEKYIEKNLMFLSRQTSNNFEVIVVDDGSTDNTCEVSEACLENFKINHRVIRCEENRGQSVARNIGINYSRGKYILFLDSDDFAENNLVQILERNMFNEPDIVFFDYKRIKEGDSVNVNIAQNFEFGKIKSGEEVFNAYKDNKIRLWTGSLVYNKEFLNKNKLRFLEGAHGAEDLNFIFKALLSSKKVRGIEDSLVFYCQRGDSLTNNPDIYKNITVVESMEDVAKFIDENKLDKKLKEAIEKEFTCEHIMYQILGYLNSETKKDTLSVLKNKNVKKYLKKATIKTNRYGRSMYTYMKMAAYFPNLFIKTYLKNTGKLEHHHHHH | soluble
MALSKFNLFIGDILFNTLTGYAIKLESWEIEKLRKGVVPEHLKDIIEEGFSATDEDLDEEIEKFLRKPVLEPTLVLTYNCNFDCIYCFQKGFRKNISVSDKVTRGFVNYIRKNEKGRKVRVTYFGGEPILQLRKIEEISRELSDLKYSFSVVTNGSLLTRKIVERLIPLGLTHVQITLDGPKEVHDKRRFFVSGEGTFDVIVKNLKEIQDMVKVVLRINIDVKNLNEIGELLNELKMEGINRVRLDPHLVHSNVFRNEWWDFTISSKAEGDVMVKFWEIARKYGFEVPQDVLRLGLCVAYSSEDIVVDPEGNIYPCWAFTGNPLYVKGKLEEDGSVKVTNKSLWWKVKIEDKCRECPFLPLCMGGCKFLATINGDDCKREAYEKIVRSIRWVMG | not soluble
MAMNGTITTWFKDKGFGFIKDENGDNRYFHVIKVANPDLIKKDAAVTFEPTTNNKGLSAYAVKVVPESKYIYIAGERLKLTSIKSYLVYSEEVPADTRIDKENTVLSVGVLMNSIRPKSVAEPDEIRSLKKLAITTFQGTTLIFSEDEIDVDATVKLLKVLEHHHHHH | soluble
MAMNLLEDWCRGMEVDIHRSLLVTGIPEDCGQAEIEETLNGVLSPLGPYRVLNKIFVREENVKAALIEVGEGVNLSTIPREFPGRGGVWRVVCRDPTQDAEFLKNLNEFLDAEGRTWEDVVRLLQLNHPTLSQNQHQPPENWAEALGVLLGAVVQIIFCMDAEIRSREEARAQEAAEFEEMAAWALAAGRKVKKEPGLAAEVGSALKAETPNNWNATEDQHEPTKPLVRRAGAKSRSRRKKQKKNSRQEAVPWKKPKGINSNSTANLEDPEVGDAESMAISEPIKGSRKPCVNKEELALKKPMAKCAWKGPREPPQDARAEAESPGGASESDQDGGHESPPKKKAVAWVSAKNPAPMRKKKKVSLGPVSYVLVDSEDGRKKPVMPKKGPGSRREASDQKAPRGQQPAEATASTSRGPKAKPEGSPRRATNESRKV | soluble
MAMSIELRTKYGQIDISNEVIAMVAGGAAVDCYGIVGSKNQIKDGLTEILRKENFSRGVQVRQEGEQIHIDMYIIVSYGTKISEVAHNVQTKVKYTVNQTIGLAVDSVNIYVQGVRVTNPLEHHHHHH | not soluble
MAMVPAKSLATTCVASKRMMWQIPEKWTMEEASTVPCVYSTVYYALVVRGQMKKGEKILIHAGSGGVGQAAISVALAHGLTVFTTVGSKEKREFLLKRFPKLQERNIGNSRDTSFEQLVLRETKGRGVDLVLNSLSEEKLQASIRCLGLNGRFLEIGKFDLSNNSPLGMSVFLKNTSFHGILLDSVMEGEEEMQNQVVSLVAEGIKTGAVVPLPTSVFNDQQVEQAFRFMASGKHIGKVVIK | soluble
MANANPFARIADRYDGTPPRLRPPLVTQAVGEVIPFVDTAGCFVEAYTPRRVAVRLDNEERLHNHLGGLHAAALALLAETATGLVVALNVPDGSSPLLRTMDISFENFARDAVQAEATLTDAETSQVRSRPLGQIAVDVALTAPDDDTTLVAGTLTWAWVPEARLVDEGERLEHHHHHH | not soluble
MANDDLQQRLDKGMYGTPLVNPEEQHKYMGTFRERCRLSMTVAEMKDAQNQKHLLEELAKHPEVTVLLNGEISSDLQSTYIKLLNQHGANFKIVNNFVENNPDSLGLLLAEKHAVDEPVIDVTEKYPQATETPKEEPTAKKSFWQKLFHS | not soluble
MANEIPTKGILKSEALKQYIMETSAYPREHELLKELRKATVQKYGNLSEMEVPVDEGHFLSMLVKIMNAKNTIEIGVFTGYSLLTTALALPEDGRITAIDIDKEAYEVGLEFIKKAGVDHKINFIHSDGLKALDQLVNDKCEFDFAFADADKSSYVNFHERLLKLVKVGGIIAFDNTLWFGFVAEDEDGVPEHMREYRAALIEFNKKLALDPRVEVSQISIGDGITLCRRLV | soluble
MANFNVPKLGVFPVAAVFDIDNVPEDSSATGSRWLPSIYQGGNYWGGGPQALHAQVSNFDSSNRLPYNPRTENNPAGNCAFAFNPFGQYISNISSAQSVHRRIYGIDLNDEPLFSPNAASITNGGNPTMSQDTGYHNIGPINTAYKAEIFRPVNPLPMSDTAPDPETLEPGQTEPLIKSDGVYSNSGIASFIFDRPVTEPNPNWPPLPPPVIPIIYPTPALGIGAAAAYGFGYQVTVYRWEEIPVEFIADPETCPAQPTTDKVIIRTTDLNPEGSPCAYEAGIILVRQTSNPMNAVAGRLVPYVEDIAVDIFLTGKFFTLNPPLRITNNYFADDEVKENTVTIGNYTTTLSSAYYAVYKTDGYGGATCFIASGGAGISALVQLQDNSVLDVLYYSLPLSLGGSKAAIDEWVANNCGLFPMSGGLDKTTLLEIPRRQLEAINPQDGPGQYDLFILDDSGAYASFSSFIGYPEAAYYVAGAATFMDVENPDEIIFILRNGAGWYACEIGDALKIADDEFDSVDYFAYRGGVMFIGSARYTEGGDPLPIKYRAIIPGLPRGRLPRVVLEYQAVGMSFIPCQTHCLGKGGIISKV | not soluble
MANPFSKAWKYLMALFDSKIEENADPKVQIQQAIEDAQRQHQELSQQAAAVIGNQRQLEMQLNRRLAEIEKLQGNTRQAIQLADKARAEGNIQKATEYENAAEAFAAQLVTAEQGVEDTKQLHDQALQQADAAKKAVERNAMVLQQKVAERTKLLSQLEQAKMQEKVAESIQSMNSISNRDTPNLDQVREKIERRYANALGTAELAQNSVQGRMAEVEQAGIQLAGHSRLEQIRAEMSGGQLGAGNSATQQSIESAQQATPSAADDAVARKMRELRGEA | not soluble
